Source: PMC3155532

Key:
Details in all cases: remark: other sources report otherwise
[1] = molecular target: 3xflag-LRRK2 (leucine rich repeat kinase 2), wild type (UniProt Q5S007); assay: native gel or EMSA; native PAGE of 3xflag-LRRK2 purified from lysates treated with GDP, GTPγS or GMPPCP (10, 100 and 500 µM, 30 minutes at 30°C); silver stain and flag-M2 immunoblot
[2] = molecular target: 3xflag-LRRK2 (leucine rich repeat kinase 2), wild type (UniProt Q5S007); assay: SEC; purified 3xflag-LRRK2 (flag-M2 beads, eluted with 3xflag peptide), Superose 6 10/300 GL, 4°C, SEC running buffer with 10 µM GDP or GTPγS; fractions read by flag-M2 dot blot; higher molecular weight peaks also seen
[3] = molecular target: 3xflag-LRRK2 (leucine rich repeat kinase 2), wild type (UniProt Q5S007); assay: SEC; cleared HEK293T cell lysates expressing 3xflag-LRRK2, Superose 6 10/300 GL, 4°C, SEC running buffer (25 mM Tris pH 7.4, 150 mM NaCl, 5 mM MgCl2, 0.02% Triton, 1 mM DTT) with 10 µM GDP or GTPγS; fractions read by flag-M2 dot blot

Measured: stoichiometry N

3xflag-LRRK2 (leucine rich repeat kinase 2), wild type, Q5S007 1-2527
2: all assays above
